Laboratory results from the supplement of paper PMC9112550, “Optimization of the antimicrobial peptide Bac7 by deep mutational scanning” (BMC Biology, 2022).

test system: Escherichia coli TOP10; experiment: shrunken log2 fold change of peptide-encoding DNA abundance (4.5 h post-induction vs induction); higher = less antimicrobial activity (less host growth inhibition); conditions: time post-induction: 4.5 h; library: site-saturation at positions 5, 18, 19, 20
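Also: peptides expressed intracellularly from a pBAD plasmid library in pooled LB shake-flask culture, induced with 0.3% L-arabinose, DNA abundance read by NGS, three biological replicates, DESeq2 with apeglm shrinkage.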

Row | Sequence | shrunken log2 fold change
1 | RRIRLRPPRLPRPRPRPDDQPRP | 0.101
2 | RRIRLRPPRLPRPRPRPDDTPRP | -0.0691
3 | RRIRLRPPRLPRPRPRPDEHPRP | -0.287
4 | RRIRLRPPRLPRPRPRPDELPRP | 0.00705
5 | RRIRLRPPRLPRPRPRPDFPPRP | 0.24
6 | RRIRLRPPRLPRPRPRPDFYPRP | -0.324
7 | RRIRLRPPRLPRPRPRPDGDPRP | 0.234
8 | RRIRLRPPRLPRPRPRPDGQPRP | 0.00145
9 | RRIRLRPPRLPRPRPRPDHEPRP | 0.0172
10 | RRIRLRPPRLPRPRPRPDIGPRP | -0.189
11 | RRIRLRPPRLPRPRPRPDKKPRP | -0.0455
12 | RRIRLRPPRLPRPRPRPDLTPRP | 0.169
13 | RRIRLRPPRLPRPRPRPDLVPRP | 0.00214
14 | RRIRLRPPRLPRPRPRPDMPPRP | -0.269
15 | RRIRLRPPRLPRPRPRPDNAPRP | 0.0803
16 | RRIRLRPPRLPRPRPRPDPKPRP | 0.331
17 | RRIRLRPPRLPRPRPRPDPYPRP | 0.0541
18 | RRIRLRPPRLPRPRPRPDQCPRP | -0.0609
19 | RRIRLRPPRLPRPRPRPDQLPRP | -0.0435
20 | RRIRLRPPRLPRPRPRPDRMPRP | -0.0414
21 | RRIRLRPPRLPRPRPRPDRTPRP | 0.0027
22 | RRIRLRPPRLPRPRPRPDTFPRP | 0.0621
23 | RRIRLRPPRLPRPRPRPDVHPRP | -0.186
24 | RRIRLRPPRLPRPRPRPDVLPRP | -0.00959
25 | RRIRLRPPRLPRPRPRPDVNPRP | -0.137

Row | Sequence | shrunken log2 fold change
26 | RRIRLRPPRLPRPRPRPDWYPRP | -0.464
27 | RRIRLRPPRLPRPRPRPDYLPRP | -0.114
28 | RRIRLRPPRLPRPRPRPDYVPRP | -0.432
29 | RRIRLRPPRLPRPRPRPEAEPRP | 0.96
30 | RRIRLRPPRLPRPRPRPEAMPRP | 0.284
31 | RRIRLRPPRLPRPRPRPEATPRP | 0.294
32 | RRIRLRPPRLPRPRPRPEAWPRP | 0.0169
33 | RRIRLRPPRLPRPRPRPECGPRP | 0.372
34 | RRIRLRPPRLPRPRPRPECSPRP | 0.177
35 | RRIRLRPPRLPRPRPRPECWPRP | 0.587
36 | RRIRLRPPRLPRPRPRPECYPRP | -0.235
37 | RRIRLRPPRLPRPRPRPEDPPRP | 0.0223
38 | RRIRLRPPRLPRPRPRPEEEPRP | -0.00112
39 | RRIRLRPPRLPRPRPRPEERPRP | 0.231
40 | RRIRLRPPRLPRPRPRPEGFPRP | 0.604
41 | RRIRLRPPRLPRPRPRPEGYPRP | 0.104
42 | RRIRLRPPRLPRPRPRPEIPPRP | -0.0569
43 | RRIRLRPPRLPRPRPRPEMLPRP | -0.108
44 | RRIRLRPPRLPRPRPRPENTPRP | -0.235
45 | RRIRLRPPRLPRPRPRPEQLPRP | 0.131
46 | RRIRLRPPRLPRPRPRPEQPPRP | 0.437
47 | RRIRLRPPRLPRPRPRPESCPRP | 0.0209
48 | RRIRLRPPRLPRPRPRPESNPRP | 0.0589
49 | RRIRLRPPRLPRPRPRPETDPRP | 0.0033
50 | RRIRLRPPRLPRPRPRPETFPRP | 0.0211

Row | Sequence | shrunken log2 fold change
51 | RRIRLRPPRLPRPRPRPEVVPRP | 0.0493
52 | RRIRLRPPRLPRPRPRPEYEPRP | 0.0712
53 | RRIRLRPPRLPRPRPRPEYHPRP | 0.0779
54 | RRIRLRPPRLPRPRPRPEYRPRP | -0.0221
55 | RRIRLRPPRLPRPRPRPFAAPRP | 0.281
56 | RRIRLRPPRLPRPRPRPFALPRP | 0.187
57 | RRIRLRPPRLPRPRPRPFANPRP | 0.0335
58 | RRIRLRPPRLPRPRPRPFASPRP | -0.062
59 | RRIRLRPPRLPRPRPRPFATPRP | -0.0878
60 | RRIRLRPPRLPRPRPRPFDHPRP | -0.0264
61 | RRIRLRPPRLPRPRPRPFDKPRP | -0.151
62 | RRIRLRPPRLPRPRPRPFEWPRP | -0.151
63 | RRIRLRPPRLPRPRPRPFMLPRP | -0.356
64 | RRIRLRPPRLPRPRPRPFMSPRP | -1.39
65 | RRIRLRPPRLPRPRPRPFNLPRP | -0.596
66 | RRIRLRPPRLPRPRPRPFPTPRP | -0.158
67 | RRIRLRPPRLPRPRPRPFQEPRP | -0.274
68 | RRIRLRPPRLPRPRPRPFRAPRP | 0.113
69 | RRIRLRPPRLPRPRPRPFRQPRP | 0.0662
70 | RRIRLRPPRLPRPRPRPFRYPRP | -0.021
71 | RRIRLRPPRLPRPRPRPFSFPRP | -0.388
72 | RRIRLRPPRLPRPRPRPFTAPRP | -0.625
73 | RRIRLRPPRLPRPRPRPFTGPRP | -0.204
74 | RRIRLRPPRLPRPRPRPFVCPRP | -0.0489
75 | RRIRLRPPRLPRPRPRPFVEPRP | -0.478
